According to the RNAGym collection of RNA variant scans (doi:10.7554/elife.80360):

B1: Hairpin Ribozyme (parent)
chain: GUCCUCUUUCACGUGCGCGUGAAAGAGAGAAGUGAACCAGAGAAACACACGUUGUGGUAUAUUACCUGGUA

Variants of: B1
Assay: self-cleavage, relative activity (ratio to wild type); higher = more cleavage; co-transcriptional

Point of comparison: U63A U67C, self-cleavage 0.14. Against it:
- A36U U63C — higher, 0.172
- A39C U52G — higher, 0.267
- C38G C65U — lower, 0.0351
- G25U A59U — higher, 0.237
- U8A G34C — higher, 0.902
- A47U U63G — lower, 0.0673
- A24U A61U — higher, 0.187
- G1C U53A — higher, 0.2
- A23G G32A — lower, 0.0936
- G29C G42A — lower, 0.13
- G15C A49C — lower, 0.101
- A45G G69A — lower, 0.117
- A49U A59G — lower, 0.091
- U55G U63A — higher, 0.346
- A64G C66A — higher, 0.211
- U55C C65U — higher, 0.27
- C12A C50A — higher, 0.231
- C10G G51A — higher, 0.755
- A28G A49C — higher, 0.208
- C6A U8G — higher, 0.447
- G19C A28U — higher, 0.63
- G1A C38A — lower, 0.111
- G29C A71C — higher, 0.179
- U7C A71G — higher, 1.13
- U20G A44G — higher, 0.143
- A23U A45G — lower, 0.129
- C6U A71U — higher, 0.708
- A31U A71U — higher, 0.172
- C4A G34U — higher, 1.01
- U8C C37G — higher, 0.214
- G21U G27A — higher, 0.25
- C12A G32U — lower, 0.114
- G69U A71G — higher, 0.438
- U8C A39G — higher, 0.201
- C3G C12G — higher, 0.199
- C46A U58C — higher, 0.206
- A23G G40A — higher, 0.234
- C46A A49G — lower, 0.0498
- C18U A22U — higher, 1.1
- U8A G51U — higher, 0.92
- G21C C50U — higher, 0.256
- U7A C66U — higher, 0.461
- U5C C46G — lower, 0.0996
- U8A U58G — higher, 0.515
- U8G A64G — higher, 0.476
- C10U G27A — higher, 0.403
- U62C G68U — higher, 0.178
- A36C U53A — higher, 0.635
- G21C C65U — higher, 0.304
- A47U U70C — lower, 0.0521
- U7C — higher, 0.894
- U5G U70G — higher, 0.354
- G1U C6U — lower, 0.139
- U33C G68A — lower, 0.104
- G32A G68C — lower, 0.1
- G19U C46U — lower, 0.136
- C4U U5C — lower, 0.109
- A23U G25A — higher, 0.186
- A31U A49U — lower, 0.137
- U8C — higher, 0.739
- A26C A31C — lower, 0.0424
- C6G A71G — higher, 0.574
- U2G A44C — lower, 0.108
- G17U A39G — higher, 0.29
- U58C A71C — higher, 1.21
- U20A A30U — higher, 0.145
- U7C G15A — higher, 0.753
- G17U G25C — higher, 0.682
- G25U A71G — higher, 0.654
- A35G A36C — higher, 0.495
- C12A G17U — higher, 0.707
- U8C G19C — higher, 0.232
- A61U A71G — higher, 0.275
- C48A G69A — higher, 0.173
- U33A A49G — lower, 0.0427
- G15U U52A — higher, 0.863
- U55G G68A — higher, 0.237
- A11U U62G — lower, 0.0971
- G17A C18A — higher, 1.2
- G32A A47G — lower, 0.133
- G27C A44G — higher, 0.21
- U7A G42C — higher, 0.357
- C6G A23C — lower, 0.122
- U2G C65G — lower, 0.0852
- A28U C48U — higher, 0.251
- U14C A47U — lower, 0.112
- U20C U52G — higher, 1.12
- A36G G42U — higher, 0.227
- A22U G32U — lower, 0.0918
- U2A A64U — lower, 0.0942
- A24C G54U — higher, 0.534
- C6U A61U — lower, 0.0757
- A59U U70A — higher, 0.177
- U9C C46A — lower, 0.122
- A47G U67A — lower, 0.136
- C10G A28G — higher, 0.954
- G42C A64U — lower, 0.0972
- U7G A47U — lower, 0.0788
- C12U G29C — lower, 0.133
- U20G G56U — higher, 0.191
- U20C G51A — higher, 1.19
- A41C U60G — higher, 0.998
- U2A U52C — higher, 0.169
- G15A G34C — higher, 1.23
- U9C A22C — higher, 0.799
- G15U U62A — higher, 0.2
- U5G U62A — lower, 0.124
- A61C U63C — higher, 0.284
- A61C U63G — lower, 0.12
- U9G C12A — higher, 0.499
- A45U A59G — lower, 0.0526
- G1U U55A — higher, 0.224
- A43U C46U — higher, 0.187
- C6A U53G — higher, 0.422
- G42A G69U — higher, 0.219
- A41G A44C — lower, 0.109
- C3A G25C — higher, 0.202
- U5A U67A — lower, 0.0927
- G56A U60C — higher, 0.219
- U8A A47U — higher, 0.16
- G42U U63C — higher, 0.213
- G27C U70A — higher, 0.319
- C48U C65U — higher, 0.154
- G15C G17A — higher, 1.03
- G17U C65A — higher, 0.892
- G29A C50U — higher, 0.178
- U9A G25C — higher, 0.232
- G21C A35G — higher, 0.666
- G27U A64U — lower, 0.129
- A11C G68A — higher, 0.248
- A30U U58C — lower, 0.107
- A11G C46U — higher, 0.203
- A11C G15C — higher, 0.752
- C4G C6G — higher, 0.17
- A36U C48A — lower, 0.0449
- A36U A61C — higher, 0.196
- G57U A59U — higher, 0.411
- C38U A45U — lower, 0.113
- U5G A11U — lower, 0.0986
- C10U G21C — higher, 0.77
- A22U G27A — higher, 0.283
- A24G A26U — higher, 0.661
- C50A U52G — higher, 0.361
- U20C A31U — higher, 0.188
- C6G A59G — lower, 0.121
- A23U C50A — higher, 0.277
- A47U C48A — higher, 0.157
- U9A U58A — higher, 0.344
- G13A G69C — higher, 0.275
- A24U A39C — higher, 0.5
- G1U G19A — higher, 0.208
- U20C A36C — higher, 0.526
- G42C C50G — lower, 0.0792
- G17C C37U — higher, 0.542
- A64C U70A — higher, 0.4
- A30G A61G — higher, 0.224
- G15U C18U — higher, 1.03
- G17C A23U — higher, 0.572
- G13C G17A — higher, 0.839
- C65U A71C — higher, 0.774
- A36G C37U — lower, 0.0788
- U8C C66U — higher, 0.273
- U2C C3U — lower, 0.131
- G19C A64U — lower, 0.135
- U7C U67G — higher, 0.171
- U2C C12A — higher, 0.205
